Source: publication PMC4243253

Substrate: N[C@@H](CC(=O)c1ccccc1NC=O)C(=O)O
Test: purified protein
Format: biochemical, Burkholderia cenocepacia
Details: 0.1 M sodium phosphate, pH 7.4, 20 μM ZnCl2, 25°C

B1: BcKynB (Burkholderia cenocepacia J2315) (protein)
chain: MDTLWDISPPVSPATPVWPGDTPVAVERVWRMEAGSPVNVARLTLSPHTGAHCDAPLHYDADGAPIGAVPLDTYLGPCRVIHCIGAAPVVRPADVEAALDGVPPRVLLRTYARAAVEQWDSNFCAVAPDTVDLLAAHGVKLIGIDTPSLDPQESKTMDAHRRVRAHRMAILEGIVLDDVPPGDYELIALPLKFATLDASPVRAVLRALPAQAS
- Km: 570 ± 20 µM
- Vmax: 0.0582 µmol/min
- kcat: 43.9 s⁻¹
- kcat/Km: 77100 M⁻¹ s⁻¹
